Here are results for 9 molecules from patent US7229806B2, “Microbial conversion of glucose to para-hydroxystyrene” (E. I. du Pont de Nemours and Company, priority 2002, dated 2007).

Series [1] has as its target TAL activity of the PAL/TAL enzyme (Rhodotorula toruloides, UniProt P11544). The series can be described thus: Inhibition of TAL activity by pHCA. The class given is biochemical, R. glutinis. The source says:
(§1) An E. coli strain containing the wild type pal/tal gene (PAL/TAL ratio of 2.0) uses both PAL and TAL routes to convert glucose to both CA and pHCA. […] Based on the kinetic information it is expected that the presence of phenylalanine would interfere with the TAL activity of the enzyme.

For a further series, the system named is E. coli NST74. The series can be described thus: Toxicity of pHCA and pHS to the cells. The class given is cell-based. As to conditions: previous studies.
The nature of series [2]: TAL/PAL activity ratio of wild type and mutant PAL/TAL enzymes, separate TAL and PAL measurements in whole cells. The class given is biochemical. Particulars: ratio of TAL catalytic activity to PAL catalytic activity. On the procedure:
In order to select for those mutants having genes encoding proteins with enhanced TAL activity, a selection system based on the reversibility of the tyrosine to PHCA reaction was developed. It will be appreciated that the TAL activity responsible for the conversion of tyrosine to pHCA is in a state of equilibrium with the opposite reaction. Mutant genes were cloned by standard methods into E. coli tyrosine auxotrophs, unable to grow in the absence of tyrosine. Transformants were plated on tyrosine minus medium in the presence of suitable concentrations of pHCA. Those colonies which grew under these conditions were picked and analyzed for the presence of the mutant gene. In this fashion, a gene was isolated that expressed an enzyme having a catalytic efficiency of about 12.6×10^3 M^−1sec^−1 and a ratio of TAL catalytic activity to PAL catalytic activity of 1.7 compared to 0.5 for the wild type.
A simple method is disclosed that relies on separate measurements of the TAL and PAL activities in whole cells. The ratio of TAL to PAL activity then may be calculated and quickly compared to wild type activity, to monitor changes in the bio-catalyst activity.
Using the above approach Applicants have identified a variety of mutant PAL enzymes that have increased TAL activity, compared to the wild type gene. These mutants were identified using the methods of mutagenesis and screening described above. The mutants, the altered amino acid residues, and the TAL/PAL activity are summarized below.

Series [3] in a line: Characterization of purified PDC enzymes (pHCA as substrate). Format: biochemical. As to conditions: PDC enzyme. As for the experimental part: The reaction was initiated by the addition of 1.0 μL of enzyme to a 1.0 mL solution containing 25 mM phosphate buffer, pH 6.0, and 0.2 mM pHCA in a plastic, UV transparent cuvette. The reaction was then followed for 5 minutes spectrophotometrically at 315 nm at room temperature, using a molar extinction coefficient of […] for pHCA disappearance. The specific activity was expressed as micromoles of pHCA degraded per minute per milligram of protein.
The characteristics of the PDC enzymes isolated from L. plantarum and B. subtilis were obtained using standard spectrometric and electrophoretic techniques and are listed in Table 5.

Series [4] in a line: Kinetic studies with the PAL/TAL enzyme (Vmax, PAL/TAL ratio). The class given is biochemical.
From the text: as §1

For orientation: Ki means the equilibrium dissociation constant of an inhibitor or competing ligand from its target. The low end stands for tighter binding, the high end for weaker binding. With `O=C(O)C=Cc1ccc(O)cc1` [pHCA, para-Hydroxycinnamic acid], the Ki in series [1] was found to be 16 µM. In the series on E. coli NST74, the “toxic to the cells” value is on record as “toxic”.
For `C=Cc1ccc(O)cc1` [pHS, para-Hydroxystyrene], the “toxic to the cells” value in the series with E. coli NST74 is recorded as “toxic”. The “concentration showing toxicity to the cells” value in the series on E. coli NST74 (as low as) is at least 500 µg/mL.

B1: RM492-1: mutant TAL enzyme, SEQ ID NO:18 (protein)
chain: MAPSLDSISHSFANGVASAKQAVNGASTNLAVAGSHLPTTQVTQVDIVEKMLAAPTDSTLELDGYSLNLGDVVSAARKGRPVRVKDSDEIRSKIDKSVEFLRSQLSMSVYGVTTGFGGSADTRTEDAISLQKALLEHQLCGVLPSSFDSFRLGRGLENSLPLEVVRGAMTIRVNSLTRGHSAVRLVVLEALTNFLNHGITPIVPLRGTISASGDLSPLSYIAAAISGHPDSKVHVVHEGKEKILYAREAMALFNLEPVVLGPKEGLGLVNGTAVSASMATLALHDAHMLSLLSQSLTAMTVEAMVGHAGSFHPFLHDVTRPHPTQIEVAGNIRKLLEGSRFAVHHEEEVKVKDDEGILRQDRYPLRTSPQWLGPLVSDLIHAHAVLTIEAGQSTTDNPLIDVENKTSHHGGNFQAAAVANTMEKTRLGLAQIGKLNFTQLTEMLNAGMNRGLPSCLAAEDPSLSYHCKGLDIAAAAYTSELGHLANPVTTHVQPAEMANQAGNSLALISARRTTESNDVLSLLLATHLYCVLQAIDLRATEFEFKKQFGPAIVSLIDQHFGSAMTGSNLRDELVEKVNKTLAKRLEQTNSYDLVPRWHDAFSFAAGTVVEVLSSTSLSLAAVNAWKVAAAESAISLTRQVRETFWSAASTSSPALSYLSPRTQILYAFVREELGVKARRGDVFLGKQEVTIGSNVSKIYEAIKSGRINNVLLKMLA
modifications: not fully specified
Regarding B1, in series [2], the TAL/PAL ratio was found to be 2.0.

B2: B. subtilis: para-hydroxycinnamic acid decarboxylase (pdc2) from B. subtilis, SEQ ID NO:6, expressed in E. coli and purified (protein, listed as Bacillus subtilis)
chain: MENFIGSHMIYTYENGWEYEIYIKNDHTIDYRIHSGMVAGRWVRDQEVNIVKLTEGVYKVSWTEPTGTDVSLNFMPNEKRMHGIIFFPKWVHEHPEITVCYQNDHIDLMKESREKYETYPKYVVPEFAEITFLKNEGVDNEEVISKAPYEGMTDDIRAGRL
In general, Km refers to the concentration of substrate that gives half-maximal velocity. For the molecule B2, the Km in series [3] turned out to be 1300 µM.

B3: Wild Type PAL: wild type phenylalanine-tyrosine ammonia lyase (pal/tal) enzyme from R. glutinis, SEQ ID NO:2 (protein, listed as Rhodotorula glutinis)
chain: MAPSLDSISHSFANGVASAKQAVNGASTNLAVAGSHLPTTQVTQVDIVEKMLAAPTDSTLELDGYSLNLGDVVSAARKGRPVRVKDSDEIRSKIDKSVEFLRSQLSMSVYGVTTGFGGSADTRTEDAISLQKALLEHQLCGVLPSSFDSFRLGRGLENSLPLEVVRGAMTIRVNSLTRGHSAVRLVVLEALTNFLNHGITPIVPLRGTISASGDLSPLSYIAAAISGHPDSKVHVVHEGKEKILYAREAMALFNLEPVVLGPKEGLGLVNGTAVSASMATLALHDAHMLSLLSQSLTAMTVEAMVGHAGSFHPFLHDVTRPHPTQIEVAGNIRKLLEGSRFAVHHEEEVKVKDDEGILRQDRYPLRTSPQWLGPLVSDLIHAHAVLTIEAGQSTTDNPLIDVENKTSHHGGNFQAAAVANTMEKTRLGLAQIGKLNFTQLTEMLNAGMNRGLPSCLAAEDPSLSYHCKGLDIAAAAYTSELGHLANPVTTHVQPAEMANQAVNSLALISARRTTESNDVLSLLLATHLYCVLQAIDLRAIEFEFKKQFGPAIVSLIDQHFGSAMTGSNLRDELVEKVNKTLAKRLEQTNSYDLVPRWHDAFSFAAGTVVEVLSSTSLSLAAVNAWKVAAAESAISLTRQVRETFWSAASTSSPALSYLSPRTQILYAFVREELGVKARRGDVFLGKQEVTIGSNVSKIYEAIKSGRINNVLLKMLA
In the case of B3, in series [4] (previous kinetic studies), the “Vmax for PAL” value was found to be 5.5 and the “Vmax for TAL” value is reported as 0.76. Besides, the PAL/TAL ratio in series [4] (wild type pal/tal gene in E. coli) was found to be 2.0. The TAL/PAL ratio in series [2] turned out to be 0.5.

B4: RM120-7: mutant TAL enzyme, SEQ ID NO:17 (protein)
chain: MAPSLDSISHSFANGVASAKQAVNGASTNLAVAGSHLPTTQVTQVDIVEKMLAAPTDSTLELDGYSLNLGDVVSAARKGRPVRVKDSDEIRSKIDKSVEFLRSQLSMSVYGVTTGFGGSADTRTEDAISLQKALLEHQLCGVLPSSFDXFRLGRGLENSLPLEVVRGAMTIRVNSLTRGHSAVRLVVLEALTNFLNHGITPXVPLRGTISASGDLSPLSYIAAAISGHPDSKVHVVHEGKEKILYAREAMALFNLEPVVLGPKEGLGLVNGTAVSASMATLALHDAHMLSLLSQSLTAMTVEAMVGHAGSFHPFLHDVTRPHPTQIEVAGNIRKLLEGSRFAVHHEEEVKVKDDEGILRQDRYPLRTSPQWLGPLVSDLIHAHAVLTIEAGQSTTDNPLIDVENKTSHHGGNFQAAAVANTMEKTRLGLAQIGKLNFTQLTEMLNAGMNRGLPSCLAAEDPSLSYHCKGLDIAAAAYTSELGHLANPVTTHVQPAEMANQAVNSLALISARRTTESNDVLSLLLATHLYCVLQAIDLRAXEFEFKKQFGPAIVSLIDQHFGSAMTGSNLRDELVEKVNKTLAKRLEQTNSYDLVPRWHDAFSFAAGTVVEVLSSTSLSLAAVNAWKVAAAESAISLTRQVRETFWSAASTSSPALSYLSPRTQILYAFVREELGVKARRGDVFLGKQEVTIGSNVSKIYEAIKSGRINNVLLKMLA
modifications: Mutant from Rhodotorula glutinis
B4: the TAL/PAL ratio in series [2] is 0.8.

B5: RM120-1: mutant TAL enzyme, SEQ ID NO:14 (protein)
chain: MAPSLDSISHSFANGVASAKQAVNGASTNLAVAGSHLPTTQVTQVDIVEKMLAAPTDSTLELDGYSLNLGDVVSAARKGRPVRVKDSDEIRSKIDKSVEFLRSQLSMSVYGVTTGFGGSADTRTEXAISLQKALLEHXLCGVLPSSFDSFRLGRGLENSLPLEVVRGAMTIRVNSLTRGHSAVRLVVLEALTNFLNHGITPIVPLRGTISASGDLSPLSYIAAAISGHPDSKVHVVHEGKEKILYAREAMALFNLEPVVLGPKEGLGLVNGTAVSASMATLALHDAHMLSLLSQSLTAMTVEAMVGHAGSFHPFLHDVTRPHPTQIEVAGNIRKLLEGSRFAVHHEEEVKVKDDEGILRQDRYPLRTSPQWLGPLVSDLIHAHAVLTIEAGQSTTDNPLIDVENKTSHHGGNFQAAAVANTMEKTRLGLAQIGKLNFTQLTEMLNAGMNRGLPSCLAAEDPSLSYHCKGLDIAAAAYTSELGHLANPVTTHVQPAEMANQAVNSLALISARRTTESNDVLSLLLATHLYCVLQAIDLRAXEFEFKKQFGPAIVSLIDQHFGSAMTGSNLRDELVEKVNKTLAKRLEQTNSYDLVPRWHDAFSFAAGTVVEVLSSTSLSLAAVNAWKVAAAESAISLTRQVRETFWSAASTSSPALSYLSPRTQILYAFVREELGVKARRGDVFLGKQEVTIGSNVSKIYEAIKSGRINNVLLKMLA
modifications: Mutant from Rhodotorula glutinis
As for B5, in series [2], the TAL/PAL ratio is 7.2.

B6: RM120-4: mutant TAL enzyme, SEQ ID NO:16 (protein)
chain: MAPSLDSISHSFANGVASAKQAVNGASTNLAVAGSHLPTTQVTQVDIVEKMLAAPTDSTLELDGYSLNLGDVVSAARKGRPVRVKDSDEIRSKIDKSVEFLRSQLSMSVYGVTTGFGGSADTRTEDAISLQKALLEHQLCGVLPSSFDSFRLGRGLENSLPLEVVRGAMTIRVNSLTRGHXAVRLVVLEALTNFLNHGITPIVPLRGTISASGDLSPLSYIAAAISGHPDSKVHXVHEGKEKILYAREAMALFNLEPVVLGPKEGLGLVNGTAVSASMATLALHDAHMLSLLSQSLTAMTVEAMVGHAGSFHPFLHDVTRPHPTQIEVAGNIRKLLEGSRFAVHHEEEVKVKDDEGILRQDRYPLRTSPQWLGPLVSDLIHAHAVLTIEAGQSTTDNPLIDVENKTSHHGGNFQAAAVANTMEKTRLGLAQIGKLNFTQLTEMLNAGMNRGLPSCLAAEDPSLSYHCKGLDIAAAAYTSELGHLANPVTTHVQPAEMANQAVNSLALISARRTTESNDVLSLLLATHLYCVLQAIDLRAXEFEFKKQFGPAIVSLIDQHFGSAMTGSNLRDELVEKVNKTLAKRLEQTNSYDLVPRWHDAFSFAAGTVVEVLSSTSLSLAAVNAWKVAAAESAISLTRQVRETFWSAASTSSPALSYLSPRTQILYAFVREELGVKARRGDVFLGKQEVTIGSNVSKIYEAIKSGRINNVLLKMLA
modifications: Mutant from Rhodotorula glutinis
B6: the TAL/PAL ratio in series [2] came to 2.0.

B7: L. plantarum: para-hydroxycinnamic acid decarboxylase (pdc1) from L. plantarum, SEQ ID NO:4, expressed in E. coli and purified (protein, listed as Lactobacillus plantarum)
chain: MTKTFKTLDDFLGTHFIYTYDNGWEYEWYAKNDHTVDYRIHGGMVAGRWVTDQKADIVMLTEGIYKISWTEPTGTDVALDFMPNEKKLHGTIFFPKWVEEHPEITVTYQNEHIDLMEQSREKYATYPKLVVPEFANITYMGEGQNNEDVISEAPYKEMPNDIRNGKYLIKTTIV
Regarding B7, the Km in series [3] was determined as 1400 µM.
